B1: Glutaryl-CoA dehydrogenase, mitochondrial (Homo sapiens), Q92947 (parent)
chain: MALRGVSVRLLSRGPGLHVLRTWVSSAAQTEKGGRTQSQLAKSSRPEFDWQDPLVLEEQLTTDEILIRDTFRTYCQERLMPRILLANRNEVFHREIISEMGELGVLGPTIKGYGCAGVSSVAYGLLARELERVDSGYRSAMSVQSSLVMHPIYAYGSEEQRQKYLPQLAKGELLGCFGLTEPNSGSDPSSMETRAHYNSSNKSYTLNGTKTWITNSPMADLFVVWARCEDGCIRGFLLEKGMRGLSAPRIQGKFSLRASATGMIIMDGVEVPEENVLPGASSLGGPFGCLNNARYGIAWGVLGASEFCLHTARQYALDRMQFGVPLARNQLIQKKLADMLTEITLGLHACLQLGRLKDQDKAAPEMVSLLKRNNCGKALDIARQARDMLGGNGISDEYHVIRHAMNLEAVNTYEGTHDIHALILGRAITGIQAFTASK
partner: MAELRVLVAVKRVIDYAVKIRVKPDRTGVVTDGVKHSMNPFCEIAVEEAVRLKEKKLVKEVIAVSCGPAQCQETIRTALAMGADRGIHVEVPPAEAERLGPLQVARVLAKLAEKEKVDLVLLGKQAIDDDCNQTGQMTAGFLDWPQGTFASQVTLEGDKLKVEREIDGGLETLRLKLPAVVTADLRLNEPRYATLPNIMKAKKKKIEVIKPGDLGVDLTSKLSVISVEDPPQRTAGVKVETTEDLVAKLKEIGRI

Variants of: B1
Details: with etfb_human ETFB

Variant	effect of a mutation on the interaction
MALRGVSVRLLSRGPGLHVLRTWVSSAAQTEKGGRTQSQLAKSSRPEFDCQDPLVLEEQLTTDEILIRDTFRTYCQERLMPRILLANRNEVFHREIISEMGELGVLGPTIKGYGCAGVSSVAYGLLARELERVDSGYRSAMSVQSSLVMHPIYAYGSEEQRQKYLPQLAKGELLGCFGLTEPNSGSDPSSMETRAHYNSSNKSYTLNGTKTWITNSPMADLFVVWARCEDGCIRGFLLEKGMRGLSAPRIQGKFSLRASATGMIIMDGVEVPEENVLPGASSLGGPFGCLNNARYGIAWGVLGASEFCLHTARQYALDRMQFGVPLARNQLIQKKLADMLTEITLGLHACLQLGRLKDQDKAAPEMVSLLKRNNCGKALDIARQARDMLGGNGISDEYHVIRHAMNLEAVNTYEGTHDIHALILGRAITGIQAFTASK [W50C]	increasing interaction strength
MALRGVSVRLLSRGPGLHVLRTWVSSAAQTEKGGRTQSQLAKSSRPEFDWQDPLVLEEQLTTDEILIRDTFRTYCQERLMPRILLANCNEVFHREIISEMGELGVLGPTIKGYGCAGVSSVAYGLLARELERVDSGYRSAMSVQSSLVMHPIYAYGSEEQRQKYLPQLAKGELLGCFGLTEPNSGSDPSSMETRAHYNSSNKSYTLNGTKTWITNSPMADLFVVWARCEDGCIRGFLLEKGMRGLSAPRIQGKFSLRASATGMIIMDGVEVPEENVLPGASSLGGPFGCLNNARYGIAWGVLGASEFCLHTARQYALDRMQFGVPLARNQLIQKKLADMLTEITLGLHACLQLGRLKDQDKAAPEMVSLLKRNNCGKALDIARQARDMLGGNGISDEYHVIRHAMNLEAVNTYEGTHDIHALILGRAITGIQAFTASK [R88C]	increasing interaction strength
MALRGVSVRLLSRGPGLHVLRTWVSSAAQTEKGGRTQSQLAKSSRPEFDWQDPLVLEEQLTTDEILIRDTFRTYCQERLMPRILLANRNKVFHREIISEMGELGVLGPTIKGYGCAGVSSVAYGLLARELERVDSGYRSAMSVQSSLVMHPIYAYGSEEQRQKYLPQLAKGELLGCFGLTEPNSGSDPSSMETRAHYNSSNKSYTLNGTKTWITNSPMADLFVVWARCEDGCIRGFLLEKGMRGLSAPRIQGKFSLRASATGMIIMDGVEVPEENVLPGASSLGGPFGCLNNARYGIAWGVLGASEFCLHTARQYALDRMQFGVPLARNQLIQKKLADMLTEITLGLHACLQLGRLKDQDKAAPEMVSLLKRNNCGKALDIARQARDMLGGNGISDEYHVIRHAMNLEAVNTYEGTHDIHALILGRAITGIQAFTASK [E90K]	increasing interaction strength
MALRGVSVRLLSRGPGLHVLRTWVSSAAQTEKGGRTQSQLAKSSRPEFDWQDPLVLEEQLTTDEILIRDTFRTYCQERLMPRILLANRNEVFHLEIISEMGELGVLGPTIKGYGCAGVSSVAYGLLARELERVDSGYRSAMSVQSSLVMHPIYAYGSEEQRQKYLPQLAKGELLGCFGLTEPNSGSDPSSMETRAHYNSSNKSYTLNGTKTWITNSPMADLFVVWARCEDGCIRGFLLEKGMRGLSAPRIQGKFSLRASATGMIIMDGVEVPEENVLPGASSLGGPFGCLNNARYGIAWGVLGASEFCLHTARQYALDRMQFGVPLARNQLIQKKLADMLTEITLGLHACLQLGRLKDQDKAAPEMVSLLKRNNCGKALDIARQARDMLGGNGISDEYHVIRHAMNLEAVNTYEGTHDIHALILGRAITGIQAFTASK [R94L]	increasing interaction strength
MALRGVSVRLLSRGPGLHVLRTWVSSAAQTEKGGRTQSQLAKSSRPEFDWQDPLVLEEQLTTDEILIRDTFRTYCQERLMPRILLANRNEVFHREIISEMRELGVLGPTIKGYGCAGVSSVAYGLLARELERVDSGYRSAMSVQSSLVMHPIYAYGSEEQRQKYLPQLAKGELLGCFGLTEPNSGSDPSSMETRAHYNSSNKSYTLNGTKTWITNSPMADLFVVWARCEDGCIRGFLLEKGMRGLSAPRIQGKFSLRASATGMIIMDGVEVPEENVLPGASSLGGPFGCLNNARYGIAWGVLGASEFCLHTARQYALDRMQFGVPLARNQLIQKKLADMLTEITLGLHACLQLGRLKDQDKAAPEMVSLLKRNNCGKALDIARQARDMLGGNGISDEYHVIRHAMNLEAVNTYEGTHDIHALILGRAITGIQAFTASK [G101R]	increasing interaction strength
MALRGVSVRLLSRGPGLHVLRTWVSSAAQTEKGGRTQSQLAKSSRPEFDWQDPLVLEEQLTTDEILIRDTFRTYCQERLMPRILLANRNEVFHREIISEMGELGVLGPTIKGHGCAGVSSVAYGLLARELERVDSGYRSAMSVQSSLVMHPIYAYGSEEQRQKYLPQLAKGELLGCFGLTEPNSGSDPSSMETRAHYNSSNKSYTLNGTKTWITNSPMADLFVVWARCEDGCIRGFLLEKGMRGLSAPRIQGKFSLRASATGMIIMDGVEVPEENVLPGASSLGGPFGCLNNARYGIAWGVLGASEFCLHTARQYALDRMQFGVPLARNQLIQKKLADMLTEITLGLHACLQLGRLKDQDKAAPEMVSLLKRNNCGKALDIARQARDMLGGNGISDEYHVIRHAMNLEAVNTYEGTHDIHALILGRAITGIQAFTASK [Y113H]	increasing interaction strength
MALRGVSVRLLSRGPGLHVLRTWVSSAAQTEKGGRTQSQLAKSSRPEFDWQDPLVLEEQLTTDEILIRDTFRTYCQERLMPRILLANRNEVFHREIISEMGELGVLGPTIKGYGYAGVSSVAYGLLARELERVDSGYRSAMSVQSSLVMHPIYAYGSEEQRQKYLPQLAKGELLGCFGLTEPNSGSDPSSMETRAHYNSSNKSYTLNGTKTWITNSPMADLFVVWARCEDGCIRGFLLEKGMRGLSAPRIQGKFSLRASATGMIIMDGVEVPEENVLPGASSLGGPFGCLNNARYGIAWGVLGASEFCLHTARQYALDRMQFGVPLARNQLIQKKLADMLTEITLGLHACLQLGRLKDQDKAAPEMVSLLKRNNCGKALDIARQARDMLGGNGISDEYHVIRHAMNLEAVNTYEGTHDIHALILGRAITGIQAFTASK [C115Y]	increasing interaction strength

Source: IntAct's records for PubMed 28062662
